This is an account of results in patent US20180179276A1 (NEURIMMUNE, published 2018).

The assay addresses pathological Aβ deposits in a human brain with Alzheimer's disease (human, UniProt P05067 672-713). The experiment in a line: not described (human Alzheimer brain tissue).

pathological Aβ deposits in a human brain with Alzheimer's disease, sequence (P05067 672-713): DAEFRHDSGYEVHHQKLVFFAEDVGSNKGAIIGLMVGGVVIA

B1: antibody NI-203.26C11 (constant region as tested not stated) (antibody, V domains shown)
VH: QVQLQESGPGLVKPSQTLSLTCTVSGGSISSGNYYWTWIRQPAGKGLEWIGHIYSSGTTNYNPSLESRVTISVDTSKNQFSLSLNSVTAADTAVYYCARPLATVPDAFNIWGQGTMVTVSS
VL: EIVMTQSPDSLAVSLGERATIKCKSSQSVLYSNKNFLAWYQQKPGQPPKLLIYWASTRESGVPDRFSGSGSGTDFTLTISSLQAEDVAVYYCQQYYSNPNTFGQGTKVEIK
notes: also called anti-hIAPP antibody
Consider B1, for which the binding result is given as “no binding”.
